One assay deals with T1, MMP-1 (Homo sapiens, UniProt P03956).
T1 construct: purchased Merck Millipore
T1 sequence (P03956 100-469): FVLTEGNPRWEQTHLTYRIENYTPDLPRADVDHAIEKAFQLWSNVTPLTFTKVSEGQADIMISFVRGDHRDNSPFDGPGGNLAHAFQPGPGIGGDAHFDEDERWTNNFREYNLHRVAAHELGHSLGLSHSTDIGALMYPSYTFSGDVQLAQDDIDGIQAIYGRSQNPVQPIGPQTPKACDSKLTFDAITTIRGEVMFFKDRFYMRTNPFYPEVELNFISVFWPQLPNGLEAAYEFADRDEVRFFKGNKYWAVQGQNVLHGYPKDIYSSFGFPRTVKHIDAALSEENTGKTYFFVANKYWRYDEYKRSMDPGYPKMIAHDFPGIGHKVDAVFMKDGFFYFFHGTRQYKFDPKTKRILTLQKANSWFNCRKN
Put plainly: Sensor cleavage by MMP-1. It is filed as biochemical. The note with it: for cleavage rate (multiplexing): sensors in mixture, 17.5 nM MMP-1, incubation 15 minutes. The protocol:
(§1) Pro-Matrix-metalloproteinases (MMP-1, MMP-8, and MMP-9) (Merck Millipore, Burlington, MA, USA) were activated prior usage. To activate Pro-MMPs a fresh 50 mM 4-Aminophenylmercuric acetate (APMA) stock solution in 0.1 M NaOH was prepared. The stock solution was added in a 10:1 (v/v) ratio to Pro-MMPs (Pro-MMPs:APMA) to reach a final concentration of 5 mM APMA. The solution was incubated for 3 h at 37 °C without agitation. Following incubation, the activated MMPs were stored in aliquots at -80 °C.
Lyophilized sensors and Y3 were solubilized in MMP buffer (200 mM NaCl, 50 mM Tris-HCI, 5 mM CaCl2, 1 µM ZnCl2, 0.05 % Brij35 at pH 6.8-7.0) to 1 mM stock solutions. Cleavage was performed at 37 °C under rigorous shaking in 30 µL MMP buffer containing 0.1 mM of the respective sensor/peptide and 900 ng/mL MMP-8, or a molar equivalent of MMP-1 or MMP-9 for single cleavage conditions. Cleavage of sensors in mixture was performed with sensor concentrations of 25 µM for each sensor. The reaction was stopped via addition of 5 mM EDTA final concentration.
(§2) Experiments were performed n = 5. Cleavage was analyzed via fluorescent detection via HPLC with following wavelengths: SP3 (absorption: 646 nm; emission: 661 nm), SP5 (absorption: 494 nm; emission: 517 nm), SP7 (absorption: 553 nm; emission: 566 nm) and SN3 (absorption: 280 nm; emission: 350 nm). Y3 cleavage was analyzed as described before. Cleavage percent was analyzed by comparing the AUC of the main peak from the compound incubated with MMP and in absence of MMP. Cleavage percent was then normalized by multiplying cleavage results with a correction factor. The correction factor was determined individually for every experiment/MMP by dividing Y3 cleavage results acquired in protease sensitive linker identification study by cleavage results of Y3 in individual sensor cleavage experiments (Figure 3 D-F).

For another assay, the target named is T2, MMP-9 (Homo sapiens, UniProt P14780).
T2 construct: purchased Merck Millipore
Put plainly: Sensor cleavage by MMP-9. It counts as biochemical. The protocol: as §1
(§3) Lyophilized sensors and Y3 were solubilized in MMP buffer (200 mM NaCl, 50 mM Tris-HCI, 5 mM CaCl2, 1 µM ZnCl2, 0.05 % Brij35 at pH 6.8-7.0) to 1 mM stock solutions. […]
as §2, with “Cleavage percent was then normalized by multiplying cleavage results with a correction factor.” left out

The target in another assay is T3, MMP-8 (Homo sapiens, UniProt P22894).
T3 construct: purchased Merck Millipore
Put plainly: Sensor cleavage by MMP-8. It counts as biochemical. The note with it: sensors in mixture, 17.5 nM MMP-8, incubation 15 minutes. On the procedure: as §1, §3
as §2, with “Cleavage percent was then normalized by multiplying cleavage results with a correction factor.” left out

Assay [1] is described as follows: Sensor cleavage in human saliva. It counts as biochemical. The note with it: for cleavage in saliva from patients compared to saliva from healthy donors: periodontitis patients vs. healthy donors. On the procedure: Lyophilized sensors were solubilized in MMP buffer to 0.05 mM each and mixed with saliva 1:1 (v/v) to reach a final concentration of 25 µM per sensor. The solution was incubated for 15 min at 37 °C under rigorous shaking and the reaction was stopped via addition of 5 mM EDTA final concentration. The samples were diluted 1:2 with acetonitrile, 1:5 with water (1:10 total dilution) and analyzed via HPLC as described before. Cleavage efficiency was analyzed by comparing the AUC of the newly formed peaks compared to the total AUC of the combined peaks. Peaks with LU < 1 were considered below the limit of detection and set to 0.5 LU for further analysis.
The study participants were recruited from patients visiting the department of Periodontology of the University Hospital of Würzburg, Germany between Oct/2019 to Dec/2020. Periodontally healthy patients as well as patients with periodontal diseases of varying severity (gingivitis, periodontitis) were included. The periodontally diseased patients were in different stages of treatment (untreated patients before active initial therapy, treated recall patients in regular supportive aftercare). Eligibility criteria were age 18 to 99 years. Patients of both sexes, with and without periodontal disease were included in the study.
Periodontal examinations were obtained from all study participants comprising the documentation of missing teeth, probing pocket depths (PPD), recession, bleeding on probing (BoP), clinical attachment level (CAL), furcation involvement, tooth mobility and plaque control record (PlaCR). Demographic details and general health profile of the participants including current intake of medications and frequency of smoking was documented using a questionnaire. CAL, PPD and BoP were recorded at 6 sites per tooth (mesio-buccal, buccal, disto-buccal, disto-oral, oral, mesio-oral) using a pressure calibrated computer aided Florida Probe handpiece. Any bleeding spot appearing within 30 seconds after probing was recorded as a BoP-positive site. Furcation involvement was determined using a manual furcation probe (Nabers Probe). The total amount of periodontal inflammation present in each patient was calculated from the recorded BoP, CAL and PPD scores using the PISA-Index. Collected samples were quality-controlled hosted by the certified centralized biobank of the medical faculty of the University of Würzburg. […]
Saliva samples were prepared as above. The MMP-8 activity assay (Quickzyme, Leiden, Netherlands) was performed following provided protocols. In brief, reagents were prepared as described by protocols. […] Absorbance was measured at 405 nm in a microplate reader (Tecan Infinite F50, Crailsheim, Germany) at 0, 2, 4 and 6 h. […]

Assay [2] concerns the target MMP mix (a mixture of MMPs 1, 8, and 9). Put plainly: cell-based or functional assay.
Setting [3] is: control saliva samples, per patient, sensors in mixture, 25 µM per sensor, 15 min at 37 °C.

Where “and” joins values, the source holds several entries; their conditions need not be identical. Equal entries are not always repeated. *1 amine or outer side, *2 acyl side, *3 side chain or, on linkers, in order; H or OH if unused. Where a SMILES comes first, the peptide text is derived from it. Primed or numbered codes have the meaning given here. Where no end group is shown, it is not given here. [ ]: non-standard residue; d: D form. The star is where a group is joined. Aha′ = its azide, alkyne or alkene has reacted where a group follows in round brackets; Den = denatonium (bitter payload), attached at the C-terminus via CH2-NH2; DBCO‑Sulfo‑Cy5 = fluorescent dye clicked to Aha; AFDye488‑DBCO = fluorescent dye clicked to Aha; X1 = CC[N+](CC)(CC(=O)[*:2])Cc1ccc(CN[*:1])cc1; NH(2,6-Me2-phenyl) = Cc1cccc(C)c1N* Bounds are passed on as bounds.

T2 sequence (P14780 107-707 limits assumed): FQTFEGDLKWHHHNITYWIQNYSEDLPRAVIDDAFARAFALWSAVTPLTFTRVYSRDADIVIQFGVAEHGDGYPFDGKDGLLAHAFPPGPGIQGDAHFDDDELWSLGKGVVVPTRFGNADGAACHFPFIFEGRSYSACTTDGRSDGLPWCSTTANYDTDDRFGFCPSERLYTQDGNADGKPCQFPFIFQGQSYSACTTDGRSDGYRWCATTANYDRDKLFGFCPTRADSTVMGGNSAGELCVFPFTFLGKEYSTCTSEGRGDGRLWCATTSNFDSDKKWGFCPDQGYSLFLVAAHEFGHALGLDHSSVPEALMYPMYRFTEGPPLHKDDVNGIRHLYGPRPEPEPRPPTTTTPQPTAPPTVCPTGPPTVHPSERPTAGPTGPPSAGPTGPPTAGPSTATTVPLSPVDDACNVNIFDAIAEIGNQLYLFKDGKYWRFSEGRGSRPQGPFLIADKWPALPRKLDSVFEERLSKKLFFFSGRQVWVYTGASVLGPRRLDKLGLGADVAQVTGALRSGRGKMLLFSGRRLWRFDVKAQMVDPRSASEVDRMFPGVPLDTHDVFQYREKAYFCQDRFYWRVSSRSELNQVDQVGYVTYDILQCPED
T3 sequence (P22894 101-467): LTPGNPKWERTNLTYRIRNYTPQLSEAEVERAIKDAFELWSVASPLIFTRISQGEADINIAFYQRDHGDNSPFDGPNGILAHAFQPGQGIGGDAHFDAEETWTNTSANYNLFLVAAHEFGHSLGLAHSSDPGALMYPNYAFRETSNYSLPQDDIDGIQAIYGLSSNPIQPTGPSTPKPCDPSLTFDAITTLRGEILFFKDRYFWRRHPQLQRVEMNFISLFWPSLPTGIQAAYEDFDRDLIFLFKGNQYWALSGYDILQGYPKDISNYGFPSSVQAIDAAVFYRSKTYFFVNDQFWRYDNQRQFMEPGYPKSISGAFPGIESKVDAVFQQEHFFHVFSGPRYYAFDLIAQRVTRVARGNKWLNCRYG

On to `CC[C@H](C)[C@H](NC(=O)CNC(=O)[C@H](CCC(N)=O)NC(=O)[C@@H]1CCCN1C(=O)CNC(=O)[C@H](CO)NC(=O)CNC(=O)[C@H](CO)NC(=O)CNC(C)=O)C(=O)N[C@@H](C)C(=O)NCC(=O)N[C@@H](C)C(=O)NCC(=O)N[C@@H](CO)C(=O)NCC(=O)N[C@@H](CO)C(=O)NCc1ccc(C[N+](CC)(CC)CC(=O)Nc2c(C)cccc2C)cc1` [S1, Ac-GSGS-GPQGIAGA-GSGS-Den] (Ac-GSGSGPQGIAGAGSGS[X1]-{NH(2,6-Me2-phenyl)}), for which the maximum cleavage at MMP-1 (MMP-1, 15 min, concentrations ranging from 1 to 10 nM) is given as 7%; at MMP-9 (MMP-9, 15 min, concentrations ranging from 1 to 10 nM), 10%.

As for “SY3: sensor from PSL-Y3: Y3a with C-terminal L-azidohomoalanine clicked to fluorescent dye DBCO-Sulfo-Cy5 (Ac-GSGSGPLALVGAGSGS[Aha′](DBCO‑Sulfo‑Cy5))”, the “cleavage rate (multiplexing)” value with MMP-1 and in the assay with MMP-8 was “cleaved most effectively” in each case. In addition, in assay [1] (setting [3]), the “Cleavage SY3” value is 1.39% (2×) and 3.77% and 3.71% and 2.96% and 0.34% and 4.60% and 1.80% and 5.40% and 0.29% and 11.05% and 1.60% and 1.07% and 0.38% and 0.37% and 0.31%. The “cleavage in saliva from patients compared to saliva from healthy donors” value in assay [1] was “discriminated against periodontitis”.

As for “SY5: sensor from PSL-Y5: Y5a with C-terminal L-azidohomoalanine clicked to fluorescent dye AFDye488-DBCO (Ac-GSGSGALELVGAGSGS[Aha′](AFDye488‑DBCO))”, the “cleavage rate (multiplexing)” value with MMP-1 is on record as “not MMP-1 or MMP-9”; with MMP-8 it was “responded to MMP-8”; with MMP-9 (sensors in mixture, 17.5 nM MMP-9, incubation 15 minutes) it was “not MMP-1 or MMP-9”. In assay [1] (setting [3]), the “Cleavage SY5” value was 2.55% and 4.69% and 2.64% and 2.11% and 0.17% (2×) and 3.56% and 2.25% and 4.88% and 0.14% and 11.04% and 2.84% and 0.18% (2×) and 0.16% and 0.15%. Further, the “cleavage in saliva from patients compared to saliva from healthy donors” value in assay [1] is listed as “discriminated against periodontitis”.

As to Ac-GSGSGPQGIAGAGSGS-Den [Sensor S1, Ac-GSGS-GPQGIAGA-GSGS-Den], in assay [2], the cleavage rate (4 nM MMP mix, 5 min, HPLC) was < 1% and the cleavage rate (8 nM MMP mix, 5 min, HPLC) is > 20%.

These data come from EP4360658A1, “COMPOUNDS FOR DETECTION OF ORAL INFLAMMATION” (Julius-Maximilians-Universität Würzburg, priority 2022, dated 2024).
